# Experimental data reported in article PMC2841647 (PLoS ONE, 2010).
# Legend:
# [1] = Brain localization after intravenous injections (immunohistochemistry); format: in vivo, mouse; conditions: mice; four hours after the last intravenous injection; cortex, hippocampus, striatum, nucleus accumbens
# Description: Mice were injected twice with 200 µg of biotinylated tat-cyclotraxin-B. […] Brains were postfixed for 1 h in 4% paraformaldehyde and cut in 40-µm sections with a vibratome. Sections obtained at the same levels as for in vivo KIRA-ELISA analysis (see Fig. S8) were rinsed in PBS and incubated in TBS containing 0.05% Tween-20 with VectaStain ABC Elite kit (Vector Laboratories). […] Non-injected mice were used as negative controls for endogenous biotin.
# mice = assay: Open field; format: in vivo, mouse
# Description: Mice were treated as described above before being subjected to behavioral studies. Predictive estimation for anxiolytic properties of tat-cyclotraxin-B was assessed using open field and elevated plus-maze (EPM). Antidepressant-like action of tat-cyclotraxin-B was assessed with the forced-swim test (FST). Effects of acute treatment with tat-cyclotraxin-B on spontaneous locomotion, exploration and reactivity to a novel open field was assessed in plexiglas activity chambers (Med Associates; 45×45×31 cm). Mice were placed into the center of the open field, and activity was recorded for 30 min. Testing took place under bright ambient light conditions to increase the anxiety component of the center areas of the field (defined as the central 15×15 cm portion). Mice subjected to EPM received a double 90-interval i.v. injection of tat-cyclotraxin-B or saline buffer before being placed on the platform of the EPM and assessed for 5 min (26×5×36 cm). The diazepam control group consisted of saline buffer double-treated mice that further received a 30-min i.p. injection of diazepam (1 mg/kg). Mice were assessed for number of entries and amount of time spent in open versus closed arms. […] The total time of swimming, the number of climbing attempts and the time of immobility was recorded during the last 4 min of the session, after 2 min of habituation. […] Behaviors were recorded on videotape and scored blind.
# TrkB in brain slices = molecular target: T1, TrkB in brain slices (Mus musculus, UniProt P15209); assay: KIRA-ELISA in brain slices incubated with peptide; format: cell-based; conditions: 1 µM directly added to the slice, BDNF 4 nM
# T1 construct: KIRA-ELISA analysis of brain TrkB receptors from mice; from tissue; host or cells: adult Swiss mouse brain, 300-µm coronal slices
# T1 sequence (P15209 32-821): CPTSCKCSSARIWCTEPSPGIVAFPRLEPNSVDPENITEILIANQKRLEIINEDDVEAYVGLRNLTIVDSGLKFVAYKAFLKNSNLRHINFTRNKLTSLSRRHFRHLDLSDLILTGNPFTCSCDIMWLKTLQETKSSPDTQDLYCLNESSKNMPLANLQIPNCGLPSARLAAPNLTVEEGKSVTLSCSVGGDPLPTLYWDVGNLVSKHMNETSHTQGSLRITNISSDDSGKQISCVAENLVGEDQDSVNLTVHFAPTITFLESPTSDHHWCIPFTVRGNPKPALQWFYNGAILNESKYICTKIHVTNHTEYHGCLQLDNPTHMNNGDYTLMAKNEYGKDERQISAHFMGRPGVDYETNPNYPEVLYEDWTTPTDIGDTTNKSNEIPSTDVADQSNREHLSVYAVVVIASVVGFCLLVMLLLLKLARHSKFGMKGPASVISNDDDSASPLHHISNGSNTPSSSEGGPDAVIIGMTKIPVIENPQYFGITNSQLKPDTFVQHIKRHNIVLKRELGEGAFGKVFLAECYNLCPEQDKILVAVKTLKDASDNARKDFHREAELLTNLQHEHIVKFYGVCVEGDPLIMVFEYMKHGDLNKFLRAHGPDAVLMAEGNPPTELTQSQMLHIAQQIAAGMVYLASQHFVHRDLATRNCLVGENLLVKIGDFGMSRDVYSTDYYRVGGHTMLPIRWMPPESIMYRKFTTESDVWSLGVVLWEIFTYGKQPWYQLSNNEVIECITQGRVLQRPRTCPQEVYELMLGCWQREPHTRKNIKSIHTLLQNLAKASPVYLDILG
# Description: TrkB activity was quantified using the previously described KIRA-ELISA assay with slight modifications. Cortical neurons were seeded on polyornithin-coated flat-bottom 96-well culture plates (12×10^4 cells per well) and cultured eight days at 37°C in 5% CO2. TetOn-rhTrkB cells were seeded on flat-bottom 96-well culture plates (4×10^4 cells per well) and incubated overnight with 1000 ng/ml doxycycline (Figs. S1,S2) except when indicated. Fluorescence levels in TetOn-rhTrkB cells were verified before each assay. […] Solubilized membranes were transferred for 2 h at room temperature onto ELISA microtiter plate (Nunc Maxisorp) pre-coated overnight at 4°C with appropriate antibodies [polyclonal anti-GFP (1∶5000, Clontech) for TetOn-rhTrkB, polyclonal anti-TrkB (1 µg/ml, Upstate) for cultured neurons and brain slices, for phosphorylation assays; monoclonal anti-GFP (1∶3000, Chemicon) for TetOn-rhTrkB, monoclonal anti-TrkB (1∶1000, BD Biosciences) for cultured neurons and brain slices, for total TrkB quantification]. […] Absorbance was read at 450 nm after addition of 3,3′,5′,5-tetramethyl-benzidine substrate (Sigma) and acidification with 1N hydrochloric acid.
# human TrkB receptor = molecular target: T2, human TrkB receptor (Homo sapiens, UniProt Q16620); assay: KIRA-ELISA (TrkB tyrosine phosphorylation) in TetOn-rhTrkB CHO cells; format: cell-based; conditions: TetOn-rhTrkB cells, with or without 4 nM BDNF
# T2 construct: expressed in transfected cells
# T2 sequence (Q16620 32-822): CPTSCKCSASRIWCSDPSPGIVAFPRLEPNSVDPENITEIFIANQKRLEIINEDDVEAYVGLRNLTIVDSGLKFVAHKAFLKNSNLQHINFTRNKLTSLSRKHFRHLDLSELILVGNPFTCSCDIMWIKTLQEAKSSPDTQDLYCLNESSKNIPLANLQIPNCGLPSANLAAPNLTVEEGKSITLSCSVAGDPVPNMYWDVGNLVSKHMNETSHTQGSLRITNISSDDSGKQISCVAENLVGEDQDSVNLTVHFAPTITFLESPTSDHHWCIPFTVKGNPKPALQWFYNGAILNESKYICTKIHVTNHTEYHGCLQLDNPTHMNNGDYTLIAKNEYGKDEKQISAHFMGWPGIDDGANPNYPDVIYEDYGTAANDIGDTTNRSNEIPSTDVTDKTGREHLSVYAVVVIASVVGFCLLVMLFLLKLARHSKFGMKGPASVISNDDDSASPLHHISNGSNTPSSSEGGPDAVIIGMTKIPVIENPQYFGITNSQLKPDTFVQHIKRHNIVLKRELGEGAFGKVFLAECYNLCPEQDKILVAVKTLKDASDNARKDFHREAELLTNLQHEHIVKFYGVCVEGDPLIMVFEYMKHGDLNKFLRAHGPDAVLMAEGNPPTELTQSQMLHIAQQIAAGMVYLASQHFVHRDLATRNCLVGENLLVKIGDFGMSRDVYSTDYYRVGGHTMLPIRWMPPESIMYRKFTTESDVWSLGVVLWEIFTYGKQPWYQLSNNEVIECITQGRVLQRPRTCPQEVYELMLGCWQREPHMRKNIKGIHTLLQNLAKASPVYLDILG
# From the text: The human recombinant TrkB receptor was fluorescently tagged at its C-terminus with the Enhanced cyan fluorescent protein (rhTrkB-ECFP) by cloning the full human TrkB sequence (kindly provided by G. M. Brodeur) into the pECFP-N1 expression vector (Clontech). For inducible expression, rhTrkB-ECFP was subcloned into the tetracycline-responsive (TetOn) vector pTRE2 (Clontech). Chinese Hamster Ovary cells stably expressing rhTrkB-ECFP (TetOn-rhTrkB cells), were produced by transfection of the pTRE2-rhTrkB-ECFP plasmid into CHO-K1 TetOn cells (Clontech) followed by clone selection in 0.25 mg/ml hygromycin B (Invitrogen) and 0.1 mg/ml geneticin (G418; Invitrogen). Resistant cells were selected based on both fluorescence intensity and KIRA-ELISA profile after an overnight incubation in presence of 1000 ng/ml doxycycline (Clontech). Cortical neurons were prepared and cultured from E16 mouse embryos as described previously. The nnr5 PC12-TrkA, nnr5 PC12-TrkB and nnr5 PC12-TrkC cells (kindly provided by M. V. Chao) are NGF non-responding mutant PC12 cells stably transfected with TrkA, TrkB and TrkC cDNA, respectively.
# TrkB activity was quantified using the previously described KIRA-ELISA assay with slight modifications. Cortical neurons were seeded on polyornithin-coated flat-bottom 96-well culture plates (12×10^4 cells per well) and cultured eight days at 37°C in 5% CO2. TetOn-rhTrkB cells were seeded on flat-bottom 96-well culture plates (4×10^4 cells per well) and incubated overnight with 1000 ng/ml doxycycline (Figs. S1,S2) except when indicated. Fluorescence levels in TetOn-rhTrkB cells were verified before each assay. […] Assay was stopped by removing the medium on ice and membranes were solubilized using KIRA-ELISA solubilization buffer (NaCl 150 mM, Hepes 50 mM, Triton X-100 0.5%, thimerosal 0.01%, sodium orthovanadate 2 mM, supplemented with a cocktail of protease inhibitors) for 1 h at room temperature. Solubilized membranes were transferred for 2 h at room temperature onto ELISA microtiter plate (Nunc Maxisorp) pre-coated overnight at 4°C with appropriate antibodies [polyclonal anti-GFP (1∶5000, Clontech) for TetOn-rhTrkB, polyclonal anti-TrkB (1 µg/ml, Upstate) for cultured neurons and brain slices, for phosphorylation assays; monoclonal anti-GFP (1∶3000, Chemicon) for TetOn-rhTrkB, monoclonal anti-TrkB (1∶1000, BD Biosciences) for cultured neurons and brain slices, for total TrkB quantification]. […] Absorbance was read at 450 nm after addition of 3,3′,5′,5-tetramethyl-benzidine substrate (Sigma) and acidification with 1N hydrochloric acid.
# Concentration-response and competition curves were obtained using an iterative least-squares method derived from that of Parker & Waud (1971). […] Concentration-response curves and Eadie-Hofstee plots were analyzed using two-way ANOVA. Significance over time in locomotor activity studies was given using two-way ANOVA followed by Bonferroni's post-hoc test. […] One-way ANOVA followed by post-hoc Dunnett's test was used to evaluate statistical significance compare to saline group in EPM and FST procedures. n represents the number of independent experiments.
sequence,measurement,setting,value
YGRKKRRQRRRCNPMGYTKEGC [tat-cyclotraxin-B],detection in brain after intravenous injection,[1],detected in many brain structures
same,locomotor activity in open field,mice; 30 min,did not show any alterations
same,time in the center compartment of open field,mice; compared to saline controls,significantly more time
same,"decrease in TrkB activity, slice incubation",TrkB in brain slices,52.0±3.9%
same,TrkB inhibition compared with cyclotraxin-B,human TrkB receptor,similarly to cyclotraxin-B
